Measured values: paper doi:10.1101/2022.07.31.502239

Biological target: T1, mmLRRC8A with C-terminal EGFP and HA-tag (Mus musculus), Q80WG5
T1 chain: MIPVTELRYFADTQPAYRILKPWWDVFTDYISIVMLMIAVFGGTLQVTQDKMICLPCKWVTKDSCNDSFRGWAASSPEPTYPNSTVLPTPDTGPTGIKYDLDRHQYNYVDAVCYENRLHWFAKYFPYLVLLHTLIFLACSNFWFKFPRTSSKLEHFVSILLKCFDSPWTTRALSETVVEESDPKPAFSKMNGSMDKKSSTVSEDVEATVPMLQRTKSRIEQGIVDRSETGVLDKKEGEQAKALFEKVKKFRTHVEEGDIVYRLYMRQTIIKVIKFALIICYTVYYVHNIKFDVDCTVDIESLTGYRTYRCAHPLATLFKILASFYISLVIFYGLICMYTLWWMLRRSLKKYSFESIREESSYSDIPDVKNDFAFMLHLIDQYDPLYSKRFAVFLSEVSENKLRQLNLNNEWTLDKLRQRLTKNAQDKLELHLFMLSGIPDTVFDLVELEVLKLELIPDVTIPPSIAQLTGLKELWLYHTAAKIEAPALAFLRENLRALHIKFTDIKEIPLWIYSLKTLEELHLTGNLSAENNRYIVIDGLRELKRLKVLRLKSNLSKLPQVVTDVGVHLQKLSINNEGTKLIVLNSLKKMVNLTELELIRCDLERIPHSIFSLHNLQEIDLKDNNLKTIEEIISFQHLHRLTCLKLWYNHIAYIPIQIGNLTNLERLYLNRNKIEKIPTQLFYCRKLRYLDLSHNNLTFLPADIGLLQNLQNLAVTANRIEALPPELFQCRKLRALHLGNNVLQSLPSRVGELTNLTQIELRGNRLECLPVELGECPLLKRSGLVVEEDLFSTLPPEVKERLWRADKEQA
Experiment: single molecule pulldown with stepwise photobleaching subunit counting
Settings: remark: other sources report otherwise

stoichiometry N: 6
B1: mmLRRC8A with C-terminal EGFP and HA-tag, Q80WG5 1-810 (natural protein)
chain: T1 chain
